The values below come from patent publication US11780902B1, “Receptor/histidine kinase fusion constructs and uses thereof” (priority 2018, dated 2023).

For series [1] the following is noted: cited from earlier work.
Series [2] deals with PhoB responsive promoter driving a β-galactosidase reporter gene. Type of series: cell-based, E. coli.
The subject of the next series is GFP reporter gene. The series is described as follows: Maltose / aspartate induction of Tar HK fusions, GFP reporter gene fluorescence, FACS screen. Type of series: cell-based, E. coli. The note with it: maltose via MBP. A general note: Reporter assays use an easily measured gene product as a stand-in for the process of interest.
Series [3] concerns PhoB responsive promoter driving a β-galactosidase reporter gene. The note with it: E. coli BW23423; maltose control vs ribose; X-Gal; functional = off without ligand, on with ligand.
For series [4], the system named is plant pho promoter: luciferase reporter gene. Kind of series: Luciferase reporter in transgenic Arabidopsis, circuit RBP→TrzPhoR→PhoBVP64, exposure to ribose. It counts as in vivo. The note with it: 0 hours vs 24 hours after exposure to ribose. As to the method: FIG. 9A and FIG. 9B. Imaging of a luciferase gene reporter in transgenic Arabidopsis with the signaling circuit Ribose Binding Protein (RBP)→TrzPhoR→PhoBVP64 activating a plant pho promoter: luciferase reporter gene FIG. 9A. Four transgenic Arabidopsis lines at 0 hours (no exposure to ribose) top panel and 24 hours after exposure to ribose bottom panel. FIG. 9B. Quantification of luciferase activity from FIG. 9A.
Because the ground state of a histidine kinase is such that the kinase is active, “kinase on” and the predominate signaling phenotype seen in non-functional fusions is “kinase on,” the inventors reasoned that the valine at the D position is essential in maintaining the “kinase off” state in the absence of ligand dependent signaling. Fusions where the D position valine is replaced by alanine, glycine (the two hydrophobic amino acids smaller than valine) or a methionine (the D position residue of PhoR) results in constitutive activation (FIG. 8). E. coli has 10 HKs, including EnvZ, with HAMP domains adjacent to the HK coiled coil (FIG. 8). EnvZ is the only HK with a valine in the A/D position. There are 4 other amino acids, glutamate, isoleucine, leucine and threonine that occupy the A/D position in the 9 other E. coli HKs with a HAMP/HK coiled coil A/D overlap. […]

B1: Taz: Tar chemotactic receptor fused to EnvZ histidine kinase at conserved HAMP domain, SEQ ID NO:38 (protein)
chain: MINRIRVVTLLVMVLGVFALLQLISGSLFFSSLHHSQKSFVVSNQLREQQGELTSTWDLMLQTRINLSRSAVRMMMDSSNQQSNAKVELLDSARKTLAQAATHYKKFKSMAPLPEMVATSRNIDEKYKNYYTALTELIDYLDYGNTGAYFAQPTQGMQNAMGERFAQYALSSEKLYRDIVTDNADDYRFAQWQLAVIALVVVLILLVAWYGIRRMLLTPLAKIIAHIREIAGGNLANTLTIDGRSEMGDLAQSVSHMAAGVKQLADDRTLLMAGVSHDLRTPLTRIRLATEMMSEQDGYLAESINKDIEECNAIIEQFIDYLRTGQEMPMEMADLNAVLGEVIAAESGYEREIETALYPGSIEVKMHPLSIKRAVANMVVNAARYGNGWIKVSSGTEPNRAWFQVEDDGPGIAPEQRKHLFQPFVRGDSARTISGTGLGLAIVQRIVDNHNGMLELGTSERGGLSIRAWLPVPVTRAQGTTKEG
modifications: Fusion protein
For B1, in series [1] (aspartate), the induction by aspartate result is reported as “retains the ability to be induced by aspartate”. Besides, in series [1] (maltose), the response to maltose result is given as “no longer shows a response to maltose”.

B2: PhoQTrzPhoR: Mg^2+ responsive PhoQ receptor fused to TrzPhoR at the D position, SEQ ID NO:40 (protein)
chain: MPGRSKWYRRWRPRSLQARQLLAASLSLVAFLALAGYALDVAFADTAEKNLRERLKNYASAYAANIDFVRDGSLYIGGQPPDPRFDVPGGGLYVEVVRPDESWTSMSAEGPNIPHGRMLEPRQEEFIGPLEMTQIDGSLGQLYRYGLGVSYVEREHGGEIPYTIYVMEDARSMGAQLRVFRGAVWFYLGSAGVVLLVLQAFILQWSLRPLRRVINELTKVQRGEIQRMSEQHPRELEPLTDSINAFIESVKQLEGARRNFFANVSHELRTPLTVLQGYLEMMNEQPLEGAVREKALHTMREQTQRMEGLVKQLLTLSKIEAAPTHLLNEKVDVPMMLRVVEREAQTLSQKKQTFTFEIDNGLKVSGNEDQLRSAISNLVYNAVNHTPEGTHITVRWQRVPHGAEFSVEDNGPGIAPEHIPRLTERFYRVDKARSRQTGGSGLGLAIVKHAVNHHESRLNIESTVGKGTRFSFVIPERLIAKNSD
modifications: Fusion protein
As to B2, the “Mg^2+ signaling (β-galactosidase activity)” value in series [2] is recorded as “increase in Mg^2+ signaling”.

B3: TazPhoR 86: Maltose inducible directed evolution variant of TazPhoR, SEQ ID NO:20 (protein)
chain: MKLLSKTFLILTLTFFFFGIALAKMINRIRVVTLLVMVLGVFALLQLISGSLFFSSLHHSQKSFVVSNQLREQQGELTSTWDLMLQTRINLSRSAVRMMMDSSNQQSNAKVELLDSARKTLAQAATHYKKFKSMAPLPEMVATSRNIDEKYKNYYTALTELIDYLDYGNTGAYFAQPTQGMQNAMGEAFAQYALSSEKLYRDIVTDNADDYRFAQWQLAVIALVVVLILLVAWYGIRRMLLTPLAKIIAHIREIAGGNLANTLTIDGRSEMGDLAQSVSHMAAGVKQLRVWRRNFFANVSHELRTPLTVLQGYLEMMNEQPLEGAVREKALHTMREQTQRMEGLVKQLLTLSKIEAAPTHLLNEKVDVPMMLRVVEREAQTLSQKKQTFTFEIDNGLKVSGNEDQLRSAISNLVYNAVNHTPEGTHITVRWQRVPHGAEFSVEDNGPGIAPEHIPRLTERFYRVDKARSRQTGGSGLGLAIVKHAVNHHESRLNIESTVGKGTRFSFVIPERLIAKNSD
modifications: Fusion protein
Regarding B3, the maltose inducibility entry in the series on GFP reporter gene is “Maltose inducible”.

B4: Tac40: Maltose inducible directed evolution variant of Tac8, SEQ ID NO:24 (protein)
chain: MINRIRVVTLLVMVLGVFALLQLISGSLFFSSLHHSQKSFVVSNQLREQQGELTSTWDLMLQTRINLSRSAVRMMMDSSNQQSNAKVELLDSARKTLAQAATHYKKFKSMAPLPEMVATSRNIDEKYKNYYTALTELIDYLDYGNTGAYFAQPTQGMQNAMGERFAQYALSSEKLYRDIVTDNADDYRFAQWQLAVIALVVVLILLVAWYGIRRMLLTPLAKIIAHIREIAGGNLANTLTIDGRSEMGDLAQSVSHMAAGVKQLVWRRTLLMAGVSHDLRTPLTVLQGYLEMMNEQPLEGAVREKALHTMREQTQRMNAIIEQFIDYLRTGQEMPMEMADLNAVLGEVIAAESGYEREIETALYPGSIEVKMHPLSIKRAVANMVVNAARYGNGWIKVSSGTEPNRAWFQVEDDGPGIAPEQRKHLFQPFVRGDSARTISGTGLGLAIVQRIVDNHNGMLELGTSERGGLSIRAWLPVPVTRAQGTTKEG
modifications: Fusion protein
Regarding B4, in the series on GFP reporter gene, the maltose inducibility entry is recorded as “Maltose inducible”.

B5: TrzPhoR: coiled coil based fusion of Trz (Trg chemotactic receptor/EnvZ histidine kinase fusion) to PhoR histidine kinase, SEQ ID NO:2 (protein)
chain: MNTTPSQRLGFLHHIRLVPLFACILGGILVLFALSSALAGYFLWQADRDQRDVTAEIEIRTGLANSSDFLRSARINMIQAGAASRIAEMEAMKRNIAQAESEIKQSQQGYRAYQNRPVKTPADEALDTELNQRFQAYITGMQPMLKYAKNGMFEAIINHESEQIRPLDNAYTDILNKAVKIRSTRANQLAELAHQRTRLGGMFMIGAFVLALVMTLITFMVLRRIVIRPLQHAAQRIEKIASGDLTMNDEPAGRNEIGRLSRHLQHMAAGVKQLEGARRNFFANVSHELRTPLTVLQGYLEMMNEQPLEGAVREKALHTMREQTQRMEGLVKQLLTLSKIEAAPTHLLNEKVDVPMMLRVVEREAQTLSQKKQTFTFEIDNGLKVSGNEDQLRSAISNLVYNAVNHTPEGTHITVRWQRVPHGAEFSVEDNGPGIAPEHIPRLTERFYRVDKARSRQTGGSGLGLAIVKHAVNHHESRLNIESTVGKGTRFSFVIPERLIAKNSD
B5: in series [3], the “signaling phenotype of the fusion (ribose inducible β-galactosidase activity)” value was “functional”. Besides, in series [4], the “function in the plant detector system (luciferase activity)” value is “highly functional”.
